Data from US20210332142A1 (Genentech, published 2021).

Key:
[1] = target: T1, recombinant cyno Tie2 extracellular domain (cynomolgus monkey, UniProt Q02763 23-748 (human entry)); experiment: SPR multi-cycle kinetics, IgG captured, kinetic analysis
T1 construct: also called Recombinant cyno Tie2 ECD; cy Tie2
T1 chain: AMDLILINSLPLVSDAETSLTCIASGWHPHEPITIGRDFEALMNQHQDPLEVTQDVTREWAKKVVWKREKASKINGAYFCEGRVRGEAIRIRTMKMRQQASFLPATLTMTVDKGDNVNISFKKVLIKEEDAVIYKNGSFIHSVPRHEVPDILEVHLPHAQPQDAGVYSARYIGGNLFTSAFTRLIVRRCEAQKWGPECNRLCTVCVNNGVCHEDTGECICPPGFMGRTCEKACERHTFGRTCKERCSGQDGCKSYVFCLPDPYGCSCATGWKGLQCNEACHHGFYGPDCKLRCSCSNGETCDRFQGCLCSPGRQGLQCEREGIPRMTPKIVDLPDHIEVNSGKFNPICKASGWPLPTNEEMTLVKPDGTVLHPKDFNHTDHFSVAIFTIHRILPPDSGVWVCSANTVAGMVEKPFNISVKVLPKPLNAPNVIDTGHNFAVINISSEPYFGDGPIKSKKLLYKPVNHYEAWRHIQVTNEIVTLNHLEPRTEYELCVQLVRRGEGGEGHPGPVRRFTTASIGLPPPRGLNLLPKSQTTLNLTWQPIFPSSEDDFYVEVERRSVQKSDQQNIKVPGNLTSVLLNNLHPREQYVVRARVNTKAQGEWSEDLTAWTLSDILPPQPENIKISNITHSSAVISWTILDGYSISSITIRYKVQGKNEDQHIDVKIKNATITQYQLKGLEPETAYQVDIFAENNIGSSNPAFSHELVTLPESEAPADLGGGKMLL
Description: Binding to recombinant human and cyno Tie2 was analyzed using a high performance multi-cycle kinetics format with a contact time of 60 seconds, a dissociation time of 60 seconds, a flow rate of 100 μl/minute and Tie2 concentrations of 5 μM, 2.5 μM, 1.25 μM, 625 nM, 313 nM and 156 nM. Tie2 concentrations of 5 μM, 2.5 μM and 1.25 μM were injected twice. Results were analyzed using Biacore T200 Evaluation Software v3.0 (GE Life Sciences). Results from all three surface densities were analyzed together using the 1:1 Binding model with multiple Rmax and the RI parameter set to zero.

human Tie1 = target: T2, human Tie1 (human, UniProt P35590 22-759); experiment: ELISA: human Tie1 immobilized, serial dilutions of IgG, anti-huFc-HRP
T2 construct: extracellular domain
T2 sequence (looked up): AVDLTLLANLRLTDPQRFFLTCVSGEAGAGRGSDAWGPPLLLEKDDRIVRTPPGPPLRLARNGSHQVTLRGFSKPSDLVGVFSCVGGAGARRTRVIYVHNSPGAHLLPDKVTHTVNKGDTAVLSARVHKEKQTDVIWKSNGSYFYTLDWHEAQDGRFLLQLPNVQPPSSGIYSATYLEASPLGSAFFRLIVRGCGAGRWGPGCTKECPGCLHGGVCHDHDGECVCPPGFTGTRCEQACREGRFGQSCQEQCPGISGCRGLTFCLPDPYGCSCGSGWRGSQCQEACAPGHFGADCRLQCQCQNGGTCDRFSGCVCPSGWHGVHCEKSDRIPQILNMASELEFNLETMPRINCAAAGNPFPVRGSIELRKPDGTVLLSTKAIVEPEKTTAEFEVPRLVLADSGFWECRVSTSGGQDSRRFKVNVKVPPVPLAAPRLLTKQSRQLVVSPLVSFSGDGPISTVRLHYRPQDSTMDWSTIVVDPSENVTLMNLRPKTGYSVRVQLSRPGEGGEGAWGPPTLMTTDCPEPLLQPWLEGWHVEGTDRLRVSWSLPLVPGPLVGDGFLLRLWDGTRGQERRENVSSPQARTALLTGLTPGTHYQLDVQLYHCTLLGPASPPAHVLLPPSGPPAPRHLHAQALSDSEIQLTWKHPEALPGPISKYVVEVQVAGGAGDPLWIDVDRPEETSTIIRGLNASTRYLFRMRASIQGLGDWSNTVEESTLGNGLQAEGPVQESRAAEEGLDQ
Excerpt: Plates were washed and detected with anti-huFC-conjugated HRP secondary antibody using the methods above.
The binding ELISA was also used with immobilized Tie1 protein to assess Tie1 binding.

omalizumab = target: T3, omalizumab; experiment: phage ELISA
T3 construct: Used as irrelevant coated protein; also called irrelevant Fc-containing protein; not shown: the constant regions

rat Tie2ECD.flag = target: T4, rat Tie2ECD.flag (rat, UniProt A0ABK0L6J5 19-740); experiment: Biacore, hIgG captured, 25C
T4 construct: extracellular domain; also called rTie2.flag; not shown: C-terminal Flag tag
Description: (§1) Monovalent affinities of selected anti-Tie2 hIgGs were determined using a Biacore T200 instrument (GE Life Sciences). Anti-humanFc was covalently immobilized on a Series S CM5 Biacore sensor chip to enable non-covalent capture of anti-Tie2 antibodies and binding of human or rat Tie2ECD.flag was monitored in real time at 25° C. using a multi-cycle kinetics experiment format. Between cycles, the surface was regenerated with 3 M MgCl₂. Monovalent affinities were determined by kinetic analysis, using Biacore Evaluation Software (GE Life Sciences) to fit a 1:1 binding model to the data.

human Tie2ECD.flag = target: T5, human Tie2ECD.flag (human, UniProt Q02763 23-748); experiment: Biacore, hIgG captured, 25C
T5 construct: also called hTie2.flag; not shown: C-terminal Flag tag
Description: as §1

T5 sequence (Q02763 23-748 limits assumed): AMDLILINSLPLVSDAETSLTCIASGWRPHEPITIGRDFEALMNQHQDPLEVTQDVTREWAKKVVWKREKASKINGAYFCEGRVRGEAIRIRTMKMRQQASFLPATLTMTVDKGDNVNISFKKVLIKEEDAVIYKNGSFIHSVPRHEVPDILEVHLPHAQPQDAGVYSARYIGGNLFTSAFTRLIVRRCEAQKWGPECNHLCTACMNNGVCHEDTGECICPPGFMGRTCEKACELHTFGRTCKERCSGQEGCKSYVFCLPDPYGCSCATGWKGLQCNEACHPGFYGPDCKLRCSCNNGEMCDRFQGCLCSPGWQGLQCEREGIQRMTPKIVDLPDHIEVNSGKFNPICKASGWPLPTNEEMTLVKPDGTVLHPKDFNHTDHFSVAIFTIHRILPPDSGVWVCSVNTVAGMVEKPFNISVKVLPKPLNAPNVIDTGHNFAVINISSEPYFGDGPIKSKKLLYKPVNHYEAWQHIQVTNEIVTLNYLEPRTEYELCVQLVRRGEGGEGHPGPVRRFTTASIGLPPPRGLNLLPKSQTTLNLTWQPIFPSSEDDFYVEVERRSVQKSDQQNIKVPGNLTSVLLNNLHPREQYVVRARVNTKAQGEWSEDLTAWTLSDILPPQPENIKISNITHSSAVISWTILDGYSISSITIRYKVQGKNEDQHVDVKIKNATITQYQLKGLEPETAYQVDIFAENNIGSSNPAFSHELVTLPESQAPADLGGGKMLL

B1: Tie2.1 (antibody, human IgG1, V domains shown)
VH: EVQLVESGGGLVQPGGSLRLSCAASGFTFSNTDISWVRQAPGKGLEWVGRISPSDGNTYYADSVKGRFTISADTSKNTAYLQMNSLRAEDTAVYYCARRTRWASWAMDYWGQGTLVTVSS
VL: DIQMTQSPSSLSASVGDRVTITCRASQDVSTAVAWYQQKPGKAPKLLIYSASFLYSGVPSRFSGSGSGTDFTLTISSLQPEDFATYYCQQSYTTPPTFGQGTKVEIKR
notes: human IgG1 in all later assays; also called Ab1; Tie2.1.M100c
- koff [1]: 0.44 s⁻¹
- kon [1]: 150000 M⁻¹ s⁻¹
- binding result (human Tie1): no binding (tested: 200 nM)
- binding result (omalizumab): no binding
- Kd (rat Tie2ECD.flag): 1600 nM
- Kd (human Tie2ECD.flag): 1200 nM
